In patent publication US20100092974A1, “METHODS FOR SCREENING FOR MODULATORS OF CCRL2” (The Board of Trustees of the Leland Stanford Junior …, priority 2008, published 2010):

How the values were obtained:
mCCRL2 = target: T1, mCCRL2 (Mus musculus, UniProt O35457); assay: in vitro transwell chemotaxis, mCCRL2/L1.2 transfectants; assay type: cell-based
T1 construct: The coding regions of mCCRL2, huCCRL2, mCRTH2, and huCCR10 were amplified from genomic DNA; expressed in transfected cells
T1 sequence (O35457 1-360): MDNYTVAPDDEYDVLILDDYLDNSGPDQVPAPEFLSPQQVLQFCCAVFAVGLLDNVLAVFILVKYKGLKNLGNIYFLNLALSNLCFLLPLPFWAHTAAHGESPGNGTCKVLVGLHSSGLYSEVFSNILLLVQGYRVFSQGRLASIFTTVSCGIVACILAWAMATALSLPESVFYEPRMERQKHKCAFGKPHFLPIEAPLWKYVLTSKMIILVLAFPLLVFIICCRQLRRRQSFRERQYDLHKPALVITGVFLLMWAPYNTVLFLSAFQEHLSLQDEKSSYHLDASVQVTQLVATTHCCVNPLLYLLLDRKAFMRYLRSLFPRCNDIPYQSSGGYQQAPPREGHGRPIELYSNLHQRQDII
Description: (§1) For migration experiments using cell lines, 2.5×10^5 cells/100 μl chemotaxis media (RPMI+10% fetal calf serum) were added to the top wells of 5-um pore transwell inserts (Costar, Corning, N.Y., USA), and test samples in 600 μl media were added to the bottom wells. After incubating the transwell plates for 1.5 hours at 37° C., the bottom wells were harvested and flow cytometry was used to assess migration. For primary cell chemotaxis, 1×10^6 cells/100 μl were added to the top well, and, following a 2 hour incubation at 37° C., polystyrene beads (15.0 μm diameter, Polysciences, Warrington, Pa., USA) were added to each well to facilitate normalization of the cell count. The cells were then stained for c-kit, F4/80, and/or CD11b expression and analyzed by flow cytometry. A ratio was generated and percent input migration was calculated.

huCCRL2 = target: T2, huCCRL2 (Homo sapiens, UniProt O00421); assay: immunofluorescence-based chemerin-binding assay, huCCRL2-HA L1.2; conditions: read-out: EC50, untagged chemerin vs His8-tagged chemerin binding; 10 nM His8-tagged serum form chemerin, 30 min on ice, anti-His6 PE
T2 construct: The coding regions of mCCRL2, huCCRL2, mCRTH2, and huCCR10 were amplified from genomic DNA; expressed in transfected cells
T2 sequence (O00421 1-344): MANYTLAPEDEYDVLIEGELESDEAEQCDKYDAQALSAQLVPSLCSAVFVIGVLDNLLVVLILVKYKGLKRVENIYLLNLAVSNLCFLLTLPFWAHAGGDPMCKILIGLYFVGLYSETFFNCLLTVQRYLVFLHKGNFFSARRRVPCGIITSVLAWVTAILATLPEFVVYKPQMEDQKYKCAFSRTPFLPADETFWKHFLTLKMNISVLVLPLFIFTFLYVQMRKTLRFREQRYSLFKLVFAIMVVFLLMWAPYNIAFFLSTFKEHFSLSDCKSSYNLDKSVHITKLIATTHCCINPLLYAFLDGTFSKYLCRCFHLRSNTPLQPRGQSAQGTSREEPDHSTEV

mCRTH2 = target: T3, mCRTH2 (Mus musculus, UniProt Q9Z2J6); assay: radioligand binding to untransfected or mCRTH2-HA-transfected cells; conditions: data not shown
T3 construct: The coding regions of mCCRL2, huCCRL2, mCRTH2, and huCCR10 were amplified from genomic DNA; expressed in transfected cells
T3 sequence (Q9Z2J6 1-382): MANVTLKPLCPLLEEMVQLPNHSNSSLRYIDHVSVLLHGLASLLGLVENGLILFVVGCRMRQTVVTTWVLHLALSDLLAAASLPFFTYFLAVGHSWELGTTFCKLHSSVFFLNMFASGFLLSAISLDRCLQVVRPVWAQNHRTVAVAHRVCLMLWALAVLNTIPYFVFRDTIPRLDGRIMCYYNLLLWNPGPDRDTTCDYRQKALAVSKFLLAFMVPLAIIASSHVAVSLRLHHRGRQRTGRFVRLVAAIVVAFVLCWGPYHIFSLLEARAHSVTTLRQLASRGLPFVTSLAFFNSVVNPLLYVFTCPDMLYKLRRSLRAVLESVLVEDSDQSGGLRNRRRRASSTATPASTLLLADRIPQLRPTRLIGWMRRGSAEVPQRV

mCMKLR1 = target: T4, mCMKLR1 (Mus musculus, UniProt P97468); assay: in vitro transwell chemotaxis, mCMKLR1-HA/L1.2 cells; assay type: cell-based; conditions: range of doses
T4 construct: expressed in transfected cells; host or cells: L1.2 mouse pre-B lymphoma cells
T4 sequence (P97468 1-371): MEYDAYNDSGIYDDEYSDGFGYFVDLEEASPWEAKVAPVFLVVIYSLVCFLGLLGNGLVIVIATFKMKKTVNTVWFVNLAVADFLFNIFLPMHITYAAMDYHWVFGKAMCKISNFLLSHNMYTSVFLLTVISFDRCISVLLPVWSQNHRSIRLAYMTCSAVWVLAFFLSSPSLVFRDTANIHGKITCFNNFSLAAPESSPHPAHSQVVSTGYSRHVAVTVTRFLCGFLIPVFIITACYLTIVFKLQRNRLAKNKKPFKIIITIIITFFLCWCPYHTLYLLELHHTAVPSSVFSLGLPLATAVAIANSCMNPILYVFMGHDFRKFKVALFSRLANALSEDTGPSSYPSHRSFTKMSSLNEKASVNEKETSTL
Description: as §1

In the case of “chemerin: protein ligand for signaling receptor CMKLR1; serum form human chemerin expressed in baculovirus-infected insect cells, His8-tag removed”, the “synergy of CCL2 and chemerin in transwell migration” value (mCCRL2; CCL2 with chemerin) is reported as “did not synergize”, the transwell migration (mCCRL2; range of doses, CXCL12 and CCL19 act via endogenous CXCR4 and CCR7) is reported as “neither human nor mouse CCRL2-HA/L1.2 transfectants migrated” and the EC50 (huCCRL2) is reported as 7 nM. For the same substance, the radiolabeled chemerin binding (mCRTH2) was “no binding was detected” and the transwell migration (mCMKLR1) was “robust, dose dependent migratory response”.
